# In patent US20200200749A1 (VANDERBILT UNIVERSITY, published 2020):
# T1: EBOV GP (recombinant, full-length extracellular domain) (EBOV (Ebola Zaire), UniProt Q05320 33-650)
# T1 sequence: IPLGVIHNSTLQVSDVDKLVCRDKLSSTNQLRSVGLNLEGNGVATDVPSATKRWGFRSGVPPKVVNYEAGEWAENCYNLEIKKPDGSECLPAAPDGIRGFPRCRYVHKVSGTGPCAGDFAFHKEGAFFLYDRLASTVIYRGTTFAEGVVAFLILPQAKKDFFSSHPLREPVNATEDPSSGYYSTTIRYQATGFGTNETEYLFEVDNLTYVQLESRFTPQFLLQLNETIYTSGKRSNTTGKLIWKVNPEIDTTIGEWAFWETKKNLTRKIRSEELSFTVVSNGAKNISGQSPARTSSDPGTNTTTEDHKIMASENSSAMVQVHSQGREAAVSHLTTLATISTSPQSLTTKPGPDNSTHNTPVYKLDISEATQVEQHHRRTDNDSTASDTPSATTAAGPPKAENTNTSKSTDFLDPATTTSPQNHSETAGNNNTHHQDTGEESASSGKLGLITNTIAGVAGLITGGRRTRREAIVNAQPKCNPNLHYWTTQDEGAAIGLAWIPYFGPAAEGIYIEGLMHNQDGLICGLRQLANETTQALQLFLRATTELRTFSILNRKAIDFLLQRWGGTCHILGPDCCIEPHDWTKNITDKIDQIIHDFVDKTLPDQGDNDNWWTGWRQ
# T2: SUDV GP (recombinant) (SUDV (Sudan ebolavirus), UniProt Q66814 33-650)
# T2 sequence: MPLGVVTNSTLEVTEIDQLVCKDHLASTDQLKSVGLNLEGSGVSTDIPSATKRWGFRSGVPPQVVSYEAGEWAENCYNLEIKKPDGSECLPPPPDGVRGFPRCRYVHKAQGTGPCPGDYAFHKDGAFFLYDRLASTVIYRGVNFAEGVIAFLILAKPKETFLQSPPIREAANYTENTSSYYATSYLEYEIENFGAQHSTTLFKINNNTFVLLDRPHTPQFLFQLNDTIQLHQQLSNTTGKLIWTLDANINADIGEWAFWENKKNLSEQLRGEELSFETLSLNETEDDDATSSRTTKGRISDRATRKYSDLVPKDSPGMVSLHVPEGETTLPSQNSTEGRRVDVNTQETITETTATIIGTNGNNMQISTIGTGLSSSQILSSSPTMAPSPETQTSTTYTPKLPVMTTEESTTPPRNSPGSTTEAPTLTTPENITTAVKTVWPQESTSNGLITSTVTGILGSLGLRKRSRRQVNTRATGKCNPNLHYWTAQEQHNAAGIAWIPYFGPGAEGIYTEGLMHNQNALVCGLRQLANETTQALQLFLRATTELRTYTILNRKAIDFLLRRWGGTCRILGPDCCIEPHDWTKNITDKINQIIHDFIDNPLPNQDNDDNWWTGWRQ
# T3: EBOV sGP (EBOV (Ebola Zaire), UniProt P60170 33-324)
# T3 sequence: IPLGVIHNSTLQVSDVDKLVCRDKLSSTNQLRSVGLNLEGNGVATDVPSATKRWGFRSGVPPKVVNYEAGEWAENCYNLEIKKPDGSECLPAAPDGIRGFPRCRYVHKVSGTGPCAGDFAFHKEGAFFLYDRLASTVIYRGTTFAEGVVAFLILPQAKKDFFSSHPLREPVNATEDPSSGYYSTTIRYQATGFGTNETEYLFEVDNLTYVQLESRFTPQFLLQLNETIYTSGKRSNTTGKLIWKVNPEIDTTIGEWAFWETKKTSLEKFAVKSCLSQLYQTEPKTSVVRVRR
# B1: EBOV87 (antibody, V domains shown)
# VH: QVQLVQSGAEVKRPGASVKVSCKASGYTFTSYAISWVRQAPGQGLEWMGWISGNNGNTNYAQKLQGRLTMTTDTSTSTAYMELRSLRSDDTAVYYCARDADIVVVVGATGTYYYGMDVWGQGTLVTVSS
# VL: DIVMTQSPSTLSASVGDRVTITCRASQSISSWLAWYQQKPGKAPKLLIYDASSLESGVPSRFSGSGSGTEFTLTISSLQPDDFATYYCQQYKSSLRTFGQGTQLEIK
# B2: EBOV52 (antibody, V domains shown)
# VH: QVQLQESGPGLVKPSETLSLNCTVSGGSISSYYWSWIRQPPGKGLEWIGYIYDSGRTKYNPSLKSRVTISLDTSKNQFSLKLSSVTAADTAVYYCASLGPFDKLWFGELLPGWFDPWGQGTLVTVSS
# VL: EIVLTQSPATLSLSPGGRATLSCRASQSVHNYLAWYQQKSGQAPRLLIYDASNRATGIPARFSGSGSGTDFTLTISSLEPDDFAVYYCQHRSNWLTFGGGTKVEIK
# B3: EBOV63 (antibody, V domains shown)
# VH: EVQLVESGGGLVKPGGSLRLSCAASGFTLNFYNMNWVRQAPGKGLEWVSSISSSSNYIYYADSVKGRFTISRDNARKSLYLQMNSLRAEDTAVYYCARDFVQLLIPQRDEWQGVHDYYGMDVWGQGTLVTVSS
# VL: EIVLTQSPGTLSLSPGGRATLSCRASQSVSNSYLAWYQQKPGQAPRLLIYGASSRATGIPDRFSGSGSGTDFILTISRLEPEDFAVYYCQHYGSSQLTFGGGTKVEIK
# B4: EBOV49 (antibody, V domains shown)
# VH: EVQLVESGGGLVQPGGSLRLSCAASGFTFSSYEINWVRQAPGRGLEWVSYISSSGRTIYYADSVKGRFTISRDNAKNSLYLQMNSLRAEDTAVYYCAREPYVDGILYGAGDSYFDYWGQGTLVTVSS
# VL: DIQMTQSPSSLSASVGDRVTITCRASQSISNYLNWYQQKPGKAPKVLIYAASSLQSGVSSRFSGSGSGTDFTLTISSLQPEDFATYFCQQSYNTPPVTFGQGTRLEIK
# B5: EBOV62 (antibody, V domains shown)
# VH: EVQLVESGGGLVQPGGSLRLSCAASGFTFSSYWMSWVRQAPGKGLEWVANIKQDGSAKYYVDSVKGRFTISRDNAKNSLYLQMNSLRAEDTAVYYCARDGLLGISDLLYPIYYFDYWGQGTLVTVSS
# VL: DIVMTQSPSSLSASVGDRVTITCRASQNIGSYLNWYQQKPGKAPNLLMYAASSLQSGVPSRFSGSGSGTDFTLTITSLQPEDFATYYCQQSYSIPRTFGQGTQLEIK
# Biological target: T1, EBOV GP (recombinant, full-length …)
# Assay: ELISA, GP coated on plate, mAb serially diluted
row,Binder,EC50 [mg/L]
1,B1,724
2,B2,712
3,B3,283
4,B4,262
5,B5,228

# Biological target: T2, SUDV GP (recombinant)
# Assay: ELISA, GP coated on plate, mAb serially diluted
row,Binder,EC50 [mg/L]
1,B1,629

# Biological target: T3, EBOV sGP
# Assay: ELISA, sGP coated on plate, mAb serially diluted
row,Binder,EC50 [mg/L]
1,B1,51
2,B2,82
3,B3,38
4,B4,61
5,B5,51
